According to patent US20170081400A1 (CEPHALON, published 2017):

T1: human TL1A extracellular domain with N-terminal HIS and FLAG tag (human, UniProt O95150 72-251)
T1 construct: the whole entry is named
T1 sequence: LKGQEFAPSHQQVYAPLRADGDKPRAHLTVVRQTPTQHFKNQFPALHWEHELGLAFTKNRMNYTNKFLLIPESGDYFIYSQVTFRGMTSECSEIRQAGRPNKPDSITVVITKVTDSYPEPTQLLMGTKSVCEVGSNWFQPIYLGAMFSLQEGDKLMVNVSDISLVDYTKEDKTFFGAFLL


Assays:
[1] = target: T1, human TL1A extracellular domain with …; experiment: SPR Run 4, purified Ab captured on Protein A, TL1A 5 ug/mL, timepoint 44
Description: (§1) 1.5. Antibody expression and antigen binding as determined by SPR. Using a CM5 sensor chip (GE Healthcare) Protein A (Pierce) was coupled to the chip surface using an amine coupling kit (GE Healthcare). Protein A was coupled on flow cell 1 and 2 (or alternatively 3 and 4) using a BIACORE® T200. […] The amount of supernatant or purified protein (as well as the concentration) injected during the capture stage varied between runs and is specified in the header of the Tables 3-11. At the end of injection of the supernatant or purified antibody the change in response units was measured. This value was reported as Capture Level in Tables 3-11. […] The response units were measured prior to the end of the dissociation phase. […] The sensorgrams were double referenced (flow cell 2 is subtracted from flow cell 1 and a buffer blank). As there were a large number of antibody variants to screen, these were screened across different runs (Tables 3-11). […] A summary of the conditions used in each run is below:
(§2) 2.1. […] In some experiment the antibodies were purified using Protein A chromatography (See 1.4) and purified antibodies were used in BIACORE® (GE Healthcare) experiments.

[2] = target: T1, human TL1A extracellular domain with …; experiment: SPR Run 4, purified Ab captured on Protein A, TL1A 5 ug/mL, timepoint 220
Description: as §1, §2

[3] = target: T1, human TL1A extracellular domain with …; experiment: SPR Run 5, Ab from supernatant captured on Protein A, TL1A 5 ug/mL, timepoint 220
Description: as §1, §2

[4] = target: T1, human TL1A extracellular domain with …; experiment: SPR Run 5, Ab from supernatant captured on Protein A, TL1A 5 ug/mL, timepoint 44
Description: as §1, §2

Binder	TL1A Binding Level (Early) [1] [RU]	TL1A Binding Level (Late) [2] [RU]	TL1A Binding Level (Late) [3] [RU]	TL1A Binding Level (Early) [4] [RU]
320-315 (antibody, human IgG1, name in Kabat numbering, V domains shown, human IgG1, lambda) VH: QVQLVQSGAEVKKPGASVKVSCKASGYTFTSYDINWVRQAPGQGLEWMGWLNPNSGNTGYAQKFQGRVTMTADRSTSTAYMELSSLRSEDTAVYYCAREVPETAAFEYWGQGTLVTVSS VL: QSVLTQPPSVSGAPGQRVTISCTSSSSDIGAGLGVHWYQQLPGTAPKLLIEGYYNRPSGVPDRFSGSKSGTSASLTITGLLPEDEGDYYCLSYDGTLSALFGGGTKLTVLG	85	82		
320-421 (antibody, human IgG1, V domains shown, human IgG1, lambda; the other rows have T at 28 and F at 29, so F29Y is probably meant) VH: QVQLVQSGAEVKKPGASVKVSCKASGYTYTSYDINWVRQAPGQGLEWMGWLNPNSGNTGYAQKFQGRVTMTADRSTSTAYMELSSLRSEDTAVYYCAREVPETAAFEYWGQGTLVTVSS VL: QSVLTQPPSVSGAPGQRVTISCTSSSSDIGAGLGVHWYQQLPGTAPKLLIEGYYNRPSGVPDRFSGSKSGTSASLTITGLLPEDEGDYYCQSYDGTLSALFGGGTKLTVL			8	9
320-337 (antibody, human IgG1, name in Kabat numbering, V domains shown, human IgG1, lambda) VH: QVQLVQSGAEVKKPGASVKVSCKASGYTFTSYDINWVRQAPGQGLEWMGWLNPNSGNTGYAQKFQGRVTMTADRSTSTAYMELSSLRSEDTAVYYCAREVPETAAFEYWGQGTLVTVSS VL: QSVLTQPPSVSGAPGQRVTISCTSSSSDIGAGLGVHWYQQLPGTAPKLLIEGYYNRPSGVPDRFSGSKSGTSASLTITGLLPEDEGDYYCQSYLGTLSALFGGGTKLTVLG	21	15		
320-343 (antibody, human IgG1, name in Kabat numbering, V domains shown, human IgG1, lambda) VH: QVQLVQSGAEVKKPGASVKVSCKASGYTFTSYDINWVRQAPGQGLEWMGWLNPNSGNTGYAQKFQGRVTMTADRSTSTAYMELSSLRSEDTAVYYCAREVPETAAFEYWGQGTLVTVSS VL: QSVLTQPPSVSGAPGQRVTISCTSSSSDIGAGLGVHWYQQLPGTAPKLLIEGYYNRPSGVPDRFSGSKSGTSASLTITGLLPEDEGDYYCQSYDDTLSALFGGGTKLTVLG	121	90		
320-325 (antibody, human IgG1, name in Kabat numbering, V domains shown, human IgG1, lambda) VH: QVQLVQSGAEVKKPGASVKVSCKASGYTFTSYDINWVRQAPGQGLEWMGWLNPNSGNTGYAQKFQGRVTMTADRSTSTAYMELSSLRSEDTAVYYCAREVPETAAFEYWGQGTLVTVSS VL: QSVLTQPPSVSGAPGQRVTISCTSSSSDIGAGLGVHWYQQLPGTAPKLLIEGYYNRPSGVPDRFSGSKSGTSASLTITGLLPEDEGDYYCQSADGTLSALFGGGTKLTVLG	95	83		
320-327 (antibody, human IgG1, name in Kabat numbering, V domains shown, human IgG1, lambda) VH: QVQLVQSGAEVKKPGASVKVSCKASGYTFTSYDINWVRQAPGQGLEWMGWLNPNSGNTGYAQKFQGRVTMTADRSTSTAYMELSSLRSEDTAVYYCAREVPETAAFEYWGQGTLVTVSS VL: QSVLTQPPSVSGAPGQRVTISCTSSSSDIGAGLGVHWYQQLPGTAPKLLIEGYYNRPSGVPDRFSGSKSGTSASLTITGLLPEDEGDYYCQSQDGTLSALFGGGTKLTVLG	130	119		
320-340 (antibody, human IgG1, name in Kabat numbering, V domains shown, human IgG1, lambda) VH: QVQLVQSGAEVKKPGASVKVSCKASGYTFTSYDINWVRQAPGQGLEWMGWLNPNSGNTGYAQKFQGRVTMTADRSTSTAYMELSSLRSEDTAVYYCAREVPETAAFEYWGQGTLVTVSS VL: QSVLTQPPSVSGAPGQRVTISCTSSSSDIGAGLGVHWYQQLPGTAPKLLIEGYYNRPSGVPDRFSGSKSGTSASLTITGLLPEDEGDYYCQSYDATLSALFGGGTKLTVLG	145	132		
320-317 (antibody, human IgG1, name in Kabat numbering, V domains shown, human IgG1, lambda) VH: QVQLVQSGAEVKKPGASVKVSCKASGYTFTSYDINWVRQAPGQGLEWMGWLNPNSGNTGYAQKFQGRVTMTADRSTSTAYMELSSLRSEDTAVYYCAREVPETAAFEYWGQGTLVTVSS VL: QSVLTQPPSVSGAPGQRVTISCTSSSSDIGAGLGVHWYQQLPGTAPKLLIEGYYNRPSGVPDRFSGSKSGTSASLTITGLLPEDEGDYYCYSYDGTLSALFGGGTKLTVLG	86	83		
320-319 (antibody, human IgG1, name in Kabat numbering, V domains shown, human IgG1, lambda) VH: QVQLVQSGAEVKKPGASVKVSCKASGYTFTSYDINWVRQAPGQGLEWMGWLNPNSGNTGYAQKFQGRVTMTADRSTSTAYMELSSLRSEDTAVYYCAREVPETAAFEYWGQGTLVTVSS VL: QSVLTQPPSVSGAPGQRVTISCTSSSSDIGAGLGVHWYQQLPGTAPKLLIEGYYNRPSGVPDRFSGSKSGTSASLTITGLLPEDEGDYYCQQYDGTLSALFGGGTKLTVLG	18	14		
320-342 (antibody, human IgG1, name in Kabat numbering, V domains shown, human IgG1, lambda) VH: QVQLVQSGAEVKKPGASVKVSCKASGYTFTSYDINWVRQAPGQGLEWMGWLNPNSGNTGYAQKFQGRVTMTADRSTSTAYMELSSLRSEDTAVYYCAREVPETAAFEYWGQGTLVTVSS VL: QSVLTQPPSVSGAPGQRVTISCTSSSSDIGAGLGVHWYQQLPGTAPKLLIEGYYNRPSGVPDRFSGSKSGTSASLTITGLLPEDEGDYYCQSYDQTLSALFGGGTKLTVLG	152	139		
320-332 (antibody, human IgG1, name in Kabat numbering, V domains shown, human IgG1, lambda) VH: QVQLVQSGAEVKKPGASVKVSCKASGYTFTSYDINWVRQAPGQGLEWMGWLNPNSGNTGYAQKFQGRVTMTADRSTSTAYMELSSLRSEDTAVYYCAREVPETAAFEYWGQGTLVTVSS VL: QSVLTQPPSVSGAPGQRVTISCTSSSSDIGAGLGVHWYQQLPGTAPKLLIEGYYNRPSGVPDRFSGSKSGTSASLTITGLLPEDEGDYYCQSYAGTLSALFGGGTKLTVLG	66	44		
320-333 (antibody, human IgG1, name in Kabat numbering, V domains shown, human IgG1, lambda) VH: QVQLVQSGAEVKKPGASVKVSCKASGYTFTSYDINWVRQAPGQGLEWMGWLNPNSGNTGYAQKFQGRVTMTADRSTSTAYMELSSLRSEDTAVYYCAREVPETAAFEYWGQGTLVTVSS VL: QSVLTQPPSVSGAPGQRVTISCTSSSSDIGAGLGVHWYQQLPGTAPKLLIEGYYNRPSGVPDRFSGSKSGTSASLTITGLLPEDEGDYYCQSYSGTLSALFGGGTKLTVLG	95	67		
320-331 (antibody, human IgG1, name in Kabat numbering, V domains shown, human IgG1, lambda) VH: QVQLVQSGAEVKKPGASVKVSCKASGYTFTSYDINWVRQAPGQGLEWMGWLNPNSGNTGYAQKFQGRVTMTADRSTSTAYMELSSLRSEDTAVYYCAREVPETAAFEYWGQGTLVTVSS VL: QSVLTQPPSVSGAPGQRVTISCTSSSSDIGAGLGVHWYQQLPGTAPKLLIEGYYNRPSGVPDRFSGSKSGTSASLTITGLLPEDEGDYYCQSWDGTLSALFGGGTKLTVLG	173	176		
320-320 (antibody, human IgG1, name in Kabat numbering, V domains shown, human IgG1, lambda) VH: QVQLVQSGAEVKKPGASVKVSCKASGYTFTSYDINWVRQAPGQGLEWMGWLNPNSGNTGYAQKFQGRVTMTADRSTSTAYMELSSLRSEDTAVYYCAREVPETAAFEYWGQGTLVTVSS VL: QSVLTQPPSVSGAPGQRVTISCTSSSSDIGAGLGVHWYQQLPGTAPKLLIEGYYNRPSGVPDRFSGSKSGTSASLTITGLLPEDEGDYYCQDYDGTLSALFGGGTKLTVLG	31	17		
320-330 (antibody, human IgG1, name in Kabat numbering, V domains shown, human IgG1, lambda) VH: QVQLVQSGAEVKKPGASVKVSCKASGYTFTSYDINWVRQAPGQGLEWMGWLNPNSGNTGYAQKFQGRVTMTADRSTSTAYMELSSLRSEDTAVYYCAREVPETAAFEYWGQGTLVTVSS VL: QSVLTQPPSVSGAPGQRVTISCTSSSSDIGAGLGVHWYQQLPGTAPKLLIEGYYNRPSGVPDRFSGSKSGTSASLTITGLLPEDEGDYYCQSLDGTLSALFGGGTKLTVLG	139	119		
320-341 (antibody, human IgG1, name in Kabat numbering, V domains shown, human IgG1, lambda) VH: QVQLVQSGAEVKKPGASVKVSCKASGYTFTSYDINWVRQAPGQGLEWMGWLNPNSGNTGYAQKFQGRVTMTADRSTSTAYMELSSLRSEDTAVYYCAREVPETAAFEYWGQGTLVTVSS VL: QSVLTQPPSVSGAPGQRVTISCTSSSSDIGAGLGVHWYQQLPGTAPKLLIEGYYNRPSGVPDRFSGSKSGTSASLTITGLLPEDEGDYYCQSYDSTLSALFGGGTKLTVLG	149	135		
320-316 (antibody, human IgG1, name in Kabat numbering, V domains shown, human IgG1, lambda) VH: QVQLVQSGAEVKKPGASVKVSCKASGYTFTSYDINWVRQAPGQGLEWMGWLNPNSGNTGYAQKFQGRVTMTADRSTSTAYMELSSLRSEDTAVYYCAREVPETAAFEYWGQGTLVTVSS VL: QSVLTQPPSVSGAPGQRVTISCTSSSSDIGAGLGVHWYQQLPGTAPKLLIEGYYNRPSGVPDRFSGSKSGTSASLTITGLLPEDEGDYYCWSYDGTLSALFGGGTKLTVLG	65	62		
